According to patent US20260218128A1:

Columns and labels:
NKG2D ligands [1] = assay: flow cytometry, human primary NK cells after 24 h 1:1 co-culture with HL60 cells, NKG2D-Fc protein 5 µg/mL, anti-human IgG Fc-PE; histogram peak near 10^2; control NK only+PBS: 12.0
NKG2D ligands [2] = assay: flow cytometry, human primary NK cells after 24 h 1:1 co-culture with KG-1 cells, NKG2D-Fc protein 5 µg/mL, anti-human IgG Fc-PE; histogram peak near 10^2; control NK only+PBS: 12.0
NKG2D ligands [3] = assay: flow cytometry, human primary NK cells after 24 h 1:1 co-culture with THP-1 cells, NKG2D-Fc protein 5 µg/mL, anti-human IgG Fc-PE; histogram peak near 10^2; control NK only+PBS: 12.0
NKG2D ligands [4] = assay: flow cytometry, human primary NK cells after 24 h 1:1 co-culture with MV4-11 cells, NKG2D-Fc protein 5 µg/mL, anti-human IgG Fc-PE; faint histogram near 10^2; control NK only+PBS: 12.0
NKG2D ligands [5] = assay: flow cytometry, human primary NK cells after 24 h 1:1 co-culture with NKG2D-UCAR-T cells, NKG2D-Fc protein 5 µg/mL, anti-human IgG Fc-PE; histogram peak near 10^2; control NK only+PBS: 12.0

Chain of NKG2D-Fc protein (P26718 78-216 limits assumed): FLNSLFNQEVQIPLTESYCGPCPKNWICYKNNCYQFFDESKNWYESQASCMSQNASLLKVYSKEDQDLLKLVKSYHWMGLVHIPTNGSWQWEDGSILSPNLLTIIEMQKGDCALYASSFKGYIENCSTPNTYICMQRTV

PE fluorescence statistic, name not given (NKG2D ligands [1]): 107
PE fluorescence statistic, name not given (NKG2D ligands [2]): 99.7
PE fluorescence statistic, name not given (NKG2D ligands [3]): 125
PE fluorescence statistic, name not given (NKG2D ligands [4]): 124
PE fluorescence statistic, name not given (NKG2D ligands [5]): 95
Substance: NKG2D-Fc protein (from UniProt P26718) (Fc fusion)
